Data reported in publication PMC9828358.
pKd: −log10 of the molar value.

What was measured:
[1] = molecular target: 33‐mer gliadin peptide (wheat); assay: other fluorescence titration; intrinsic Tyr steady-state fluorescence anisotropy against peptide concentration (100-600 μM), stabilised aqueous solution pH 6.5, 25 °C, excitation 280 nm, emission 305 nm; simple one-to-one binding model; step: association of oligomers into the larger structures
[2] = molecular target: 33‐mer gliadin peptide (wheat); assay: surface tension (Wilhelmy plate); titration of freshly filtered (220 nm cut-off) peptide into the subphase, nanomolar range, 22 °C; critical concentration of aggregation

For 33‐mer gliadin peptide, the pKd [1] was 3.78 and the critical concentration of aggregation (CAC) [2] was 75 nM.
